Several values for one entry are separate records, joined by “and”; a condition that tells them apart may be missing. Identical values can stand only once.
Target: the molecule itself
Test: cryo-EM structure

B1: human polymerase theta helicase domain (PolθH, residues 2–894) (domain or fragment, UniProt O75417 2-894, looked up)
chain: NLLRRSGKRRRSESGSDSFSGSGGDSSASPQFLSGSVLSPPPGLGRCLKAAAAGECKPTVPDYERDKLLLANWGLPKAVLEKYHSFGVKKMFEWQAECLLLGQVLEGKNLVYSAPTSAGKTLVAELLILKRVLEMRKKALFILPFVSVAKEKKYYLQSLFQEVGIKVDGYMGSTSPSRHFSSLDIAVCTIERANGLINRLIEENKMDLLGMVVVDELHMLGDSHRGYLLELLLTKICYITRKSASCQADLASSLSNAVQIVGMSATLPNLELVASWLNAELYHTDFRPVPLLESVKVGNSIYDSSMKLVREFEPMLQVKGDEDHVVSLCYETICDNHSVLLFCPSKKWCEKLADIIAREFYNLHHQAEGLVKPSECPPVILEQKELLEVMDQLRRLPSGLDSVLQKTVPWGVAFHHAGLTFEERDIIEGAFRQGLIRVLAATSTLSSGVNLPARRVIIRTPIFGGRPLDILTYKQMVGRAGRKGVDTVGESILICKNSEKSKGIALLQGSLKPVRSCLQRREGEEVTGSMIRAILEIIVGGVASTSQDMHTYAACTFLAASMKEGKQGIQRNQESVQLGAIEACVMWLLENEFIQSTEASDGTEGKVYHPTHLGSATLSSSLSPADTLDIFADLQRAMKGFVLENDLHILYLVTPMFEDWTTIDWYRFFCLWEKLPTSMKRVAELVGVEEGFLARCVKGKVVARTERQHRQMAIHKRFFTSLVLLDLISEVPLREINQKYGCNRGQIQSLQQSAAVYAGMITVFSNRLGWHNMELLLSQFQKRLTFGIQRELCDLVRVSLLNAQRARVLYASGFHTVADLARANIVEVEVILKNAVPFKSARKAVDEEEEAVEERRNMRTIWVTGRKGLTEREAAALIVEEARMILQQDLVEM
stoichiometry N: 4 and 2
